Laboratory results taken from publication PMC9599826, “Selecting Multitarget Peptides for Alzheimer’s Disease” (Biomolecules, 2022).

Target: Recombinant human TLR4/myeloid differentiation factor 2 (MD-2) complex (human) (UniProt O00206)
Sequence (O00206 24-631, chain 1 of 2): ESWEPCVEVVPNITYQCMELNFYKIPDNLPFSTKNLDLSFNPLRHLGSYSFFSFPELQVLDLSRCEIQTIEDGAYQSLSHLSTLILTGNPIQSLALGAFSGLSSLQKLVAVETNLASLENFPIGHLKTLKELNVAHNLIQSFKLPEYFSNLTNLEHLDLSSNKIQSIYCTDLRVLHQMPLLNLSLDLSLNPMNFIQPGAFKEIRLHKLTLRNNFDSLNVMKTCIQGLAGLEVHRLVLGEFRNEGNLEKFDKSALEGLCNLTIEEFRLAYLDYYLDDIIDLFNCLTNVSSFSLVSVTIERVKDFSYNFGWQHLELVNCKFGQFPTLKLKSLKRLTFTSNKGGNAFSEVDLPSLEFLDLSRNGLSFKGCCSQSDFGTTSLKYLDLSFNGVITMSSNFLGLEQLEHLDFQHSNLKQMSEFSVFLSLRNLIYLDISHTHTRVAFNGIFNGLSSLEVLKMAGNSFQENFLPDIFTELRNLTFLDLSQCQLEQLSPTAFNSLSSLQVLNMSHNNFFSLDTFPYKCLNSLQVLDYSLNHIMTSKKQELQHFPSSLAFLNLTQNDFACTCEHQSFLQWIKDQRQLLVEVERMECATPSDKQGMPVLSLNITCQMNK
Sequence (Q9Y6Y9 19-160, chain 2 of 2, further chain): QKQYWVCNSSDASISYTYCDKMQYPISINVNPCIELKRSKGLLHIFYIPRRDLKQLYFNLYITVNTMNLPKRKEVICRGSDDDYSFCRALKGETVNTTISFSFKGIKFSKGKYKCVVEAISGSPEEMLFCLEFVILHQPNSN

EC50 of TLR4 activation in HEK-Blue hTLR4 reporter cells (SEAP production), S100A9 0.5-50 nM, 24 h: 0.7 nM
B1: Recombinant human calcium binding protein S100A9 (natural protein)
chain: MTCKMSQLERNIETIINTFHQYSVKLGHPDTLNQGEFKELVRKDLQNFLKKENKNEKVIEHIMEDLDTNADKQLSFEEFIMLMARLTWASHEKMHEGDEGPGHHHKPGLGEGTP
